What was measured:
[1] = target: Full-length human CRM1 (HsCRM1) (UniProt O14980); test: GST pull-down, SDS/PAGE band intensity; settings: excess ScRanGTP; triplicate experiments; parent: est. 100; read off a plot
[2] = target: Full-length human CRM1 (HsCRM1) (UniProt O14980); test: competition differential bleaching monitored with a microscale thermophoresis instrument; MBP-NESs serially diluted from 100 μM to 3 nM with 40 nM FITC-PKI^NES, mixed 1:1 with 300 nM HsCRM1 and 120 μM ScRan-GTP; TB buffer with 15% glycerol, 0.05% Tween-20; 1.5 hr, room temperature

Full-length human CRM1 (HsCRM1), sequence (O14980 whole entry): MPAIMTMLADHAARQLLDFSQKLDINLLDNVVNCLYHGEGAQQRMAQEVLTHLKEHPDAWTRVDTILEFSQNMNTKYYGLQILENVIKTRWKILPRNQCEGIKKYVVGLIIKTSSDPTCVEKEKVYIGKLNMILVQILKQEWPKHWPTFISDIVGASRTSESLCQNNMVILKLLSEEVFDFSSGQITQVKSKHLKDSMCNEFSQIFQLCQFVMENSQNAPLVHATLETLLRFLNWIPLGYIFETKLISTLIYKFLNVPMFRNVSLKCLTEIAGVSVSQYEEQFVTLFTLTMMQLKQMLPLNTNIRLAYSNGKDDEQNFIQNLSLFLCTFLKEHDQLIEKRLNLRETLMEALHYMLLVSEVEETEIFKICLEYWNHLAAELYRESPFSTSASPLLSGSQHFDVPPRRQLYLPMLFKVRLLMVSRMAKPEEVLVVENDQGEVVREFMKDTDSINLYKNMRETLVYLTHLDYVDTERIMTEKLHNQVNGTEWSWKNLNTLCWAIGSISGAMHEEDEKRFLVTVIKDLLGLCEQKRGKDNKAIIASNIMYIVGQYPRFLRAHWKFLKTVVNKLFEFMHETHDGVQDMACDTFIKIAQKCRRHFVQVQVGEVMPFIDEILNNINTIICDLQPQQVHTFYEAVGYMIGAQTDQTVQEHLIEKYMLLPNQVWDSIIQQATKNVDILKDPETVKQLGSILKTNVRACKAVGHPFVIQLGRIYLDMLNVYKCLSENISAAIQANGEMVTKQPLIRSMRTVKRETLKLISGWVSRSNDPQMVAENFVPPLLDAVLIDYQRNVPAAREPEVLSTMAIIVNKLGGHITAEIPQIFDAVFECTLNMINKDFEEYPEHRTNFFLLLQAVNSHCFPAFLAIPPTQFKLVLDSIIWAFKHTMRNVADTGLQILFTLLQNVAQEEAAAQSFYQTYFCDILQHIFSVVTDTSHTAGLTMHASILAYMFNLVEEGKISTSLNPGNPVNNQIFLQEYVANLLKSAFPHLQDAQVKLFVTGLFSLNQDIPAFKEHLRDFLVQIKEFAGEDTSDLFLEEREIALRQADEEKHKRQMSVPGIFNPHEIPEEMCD

Row | Substance | percent of parent [1] | Kd [2]
1 | GST-hRio2NES-R M11W | 80% | –
2 | GST-hRio2NES-R M11I | 57% | –
3 | GST-hRio2NES-R M11A | 17% | –
4 | GST-hRio2NES-R M11F | 53% | –
5 | GST-hRio2NES-R M11P | 15% | –
6 | MBP-hRio2^NES (peptide) | – | 2200 nM
7 | MBP-CPEB4^NES (peptide) | – | 590 nM

Second part, the substance after the results:

Row | percent of parent [1] | Kd [2] | Substance
8 | 17% | – | GST-hRio2NES-R F13A
9 | 10% | – | GST-hRio2NES-R M11Y
10 | 17% | – | GST-hRio2NES-R F13Y
11 | 33% | – | GST-hRio2NES-R F13P
12 | 110% | – | GST-hRio2NES-R F13M
13 | 17% | – | GST-hRio2NES-R M11V
14 | – | 2400 nM | MBP-hRio2^NES-R (peptide)
15 | 31% | – | GST-hRio2NES-R F13W
16 | – | 780 nM | MBP-CPEB4^NES-R (peptide)

Source: publication PMC4596688, “Structural determinants of nuclear export signal orientation in binding to exportin CRM1” (eLife, 2015)
